# Patent US11142588B2, “Polypeptides which bind C-X-C chemokine receptor type 4 (CXCR4) and methods of treating or reducing the risk of fibrosis and cancer” (AdAlta Limited, priority 2015, dated 2021)
# Values joined by “and” are separate entries in the source; they are usually repeats but may differ in a detail not shown here. Equal values may be shown once. “Also recorded” adds a separate entry of the source.
# What was measured:
# [1] = cited from earlier work
# [2] = tested on: normal and IPF lung fibroblasts; assay: Wound healing invasion assay of lung fibroblasts; assay type: cell-based, human
# Protocol: To determine the role of CXCR4 and CXCL12 in fibroblast invasion, normal and IPF lung fibroblasts were utilized in a wound healing invasion assay. ImageLock 96 well plates (Essen Bioscience) were coated with 50 μg/ml of Basement membrane extract (BME; Trevigen) for one hour at room temperature. Normal, and fibroblasts generated from lung biopsies of idiopathic pulmonary fibrosis (IPF) patients showing slow progression or rapid progression of the disease were plated (36,000 cells per well) on the BME-coated plates and incubated overnight. […] The BME was allowed to polymerize by incubating the plate at 37° C. for 15 minutes. The plates were then inserted into an IncuCyte Zoom imaging system and images were acquired every 2 hours for approximately 50 hours. Invasion was quantified using IncuCyte software (Essen Bioscience).
# [3] = cited from earlier work; remark: listed apart in the source
# [4] = tested on: HIV entry into CXCR4 expressing T-cells; assay: In vitro HIV inhibition assay; assay type: cell-based; settings: Human immunodeficiency virus 1, T-cell
# [5] = Bleomycin mouse model of pulmonary fibrosis; assay type: in vivo
# Excerpt: The optimal dose of Bleomycin is 2 U/mouse and the optimal time for assessing fibrocyte recruitment was confirmed at day 4. At days 4 bronchoalvelolar lavage (BAL) fluids were collected for analysis of SDF-1 concentration. One half of the lung tissue was used to make single cell suspensions of the lung and the cells used for flow cytometry and assayed for CD45+, CXCR4+ and Collagen1+ (fibrocytes). The other half of the lung tissue was Sircol stained for the presence of collagen 1 and RNA will be tested for Col-1, Col-3 and SDF-1.
# SDF-1, fibrocytes and collagen deposition were monitored at Day 4. Groups were dosed with the i-body just prior to administration with Bleomycin. One half of the lung tissue was minced and washed in PBS and used to make single cell suspensions of the lung with Collagenase A and dispase treatment. The cells were then used for flow cytometry and assayed for CD45+, CXCR4+ and Collagen1+ fibrocytes. […]
# Ramos tumor cells [6] = assay: Apoptosis assay (annexin V / propidium iodide flow cytometry); assay type: cell-based, human; settings: annexin V and propidium iodide double positive, 24 or 72 hours
# Protocol: The ability of an i-body of the invention to induce apoptosis in Ramos tumor cells (a human Burkitt's lymphoma cell line) was examined in an apoptosis assay according to the methods as described in Mishra M et al (2011) J Cell Mol Med 15(11):2462-77. I-bodies were incubated with Ramos cells and examined by flow cytometry after 24 or 72 hours. The cells were stained for annexin V and propidium iodide which are classic markers for apoptosis. Cells which were double positive were assessed to have become apoptotic.
# Ramos tumor cells [7] = assay: MTT cell proliferation assay; assay type: cell-based, human; settings: 24 to 72 hrs, AM3-114 at 10 μM
# Protocol: The ability of the CXCR4 molecules or polypeptides disclosed herein (i-bodies) to inhibit proliferation of Ramos tumor cells, a human Burkitt's lymphoma cell line expressing CXCR4 mentioned above, in vitro was examined in a MTT cell proliferation assay as described in (Lapteva (2005) Cancer Gene Therapy 12, 84-89). Cells were grown in a 96-well tissue culture plate and treated with a vehicle or the anti-CXCR4 body. The cells were then incubated with the MTT solution for approximately 4 hours. After this incubation period, a water-insoluble formazan dye is formed. After solubilization, the formazan dye is quantitated using a scanning multi-well spectrophotometer (ELISA reader).
# CCL2 and CCL5 protein = assay: CCL2, CCL5, CXCL12 ELISA of fibroblast conditioned supernatants; assay type: cell-based, human; settings: 48 hours
# Excerpt: Various reports indicate that CXCR4 signals in conjunction with other chemokine receptors, including CCR2.
# [8] = tested on: white blood cells, LSK and LSKSLAM cells in peripheral blood; assay: Stem cell mobilisation in mice after i.v. injection; assay type: in vivo, mouse; settings: 1 and 3 hours after i.v. injection, compared to AMD3100
# Protocol: After 1 and 3 hours, mice were euthanized and peripheral blood (PB) harvested. Spleens were harvested and weighed to assess for splenomegaly (enlargement of the spleen). Samples were lysed to remove red blood cells and 4000 cells plated for LPP (low-proliferative potential) and CFU-HPP (colony forming unit-high proliferative potential) colonies (colony counting 7 days post-plating). The remaining cells were stained with an antibody cocktail to assess lineage-committed, stem and progenitor cell content. Flow cytometric analysis was used to calculate numbers of lineage-committed cells, haemopoietic stem and progenitor cells as well as enriched HSC per volume of PB.
# [9] = tested on: Human platelet rich plasma; assay: SDF-1α induced platelet aggregation; assay type: cell-based; settings: 10 or 20 ug/mL, 100 nM SDF-1 alpha
# Protocol: Experiments were carried out to examine whether the i-bodies could block platelet aggregation induced by SDF-1α. […] In the presence of negative control i-body 21H5 (or the isotype control for 12G5: mouse IgG2a). SDF-1 induced a robust and reproducible aggregation (the descending black curves, which indicate an increase in light transmission), which matches with what has been previously published.
# CXCR4 = CXCR4 (Homo sapiens, UniProt P61073); assay: Calcium flux assay (Screen Quest Fluo-8, FLIPR) in antagonist mode; assay type: cell-based; settings: SDF-1 at EC80
# Chain of CXCR4 (P61073 whole entry): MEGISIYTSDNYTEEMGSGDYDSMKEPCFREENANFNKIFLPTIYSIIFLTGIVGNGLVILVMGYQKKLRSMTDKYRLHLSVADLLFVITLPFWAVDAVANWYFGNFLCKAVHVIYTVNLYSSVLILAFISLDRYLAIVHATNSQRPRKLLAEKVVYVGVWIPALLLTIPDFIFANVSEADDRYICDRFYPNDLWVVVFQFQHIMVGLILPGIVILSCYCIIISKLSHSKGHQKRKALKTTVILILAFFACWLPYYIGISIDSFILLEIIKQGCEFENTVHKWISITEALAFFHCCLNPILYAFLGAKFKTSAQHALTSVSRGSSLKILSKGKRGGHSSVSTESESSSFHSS
# Protocol: Inhibition of Ca2+ influx by controls or i-bodies (IC50) was then determined.
# Mammalian cells stably expressing human CXCR4 receptor were produced in-house by Multispan, Inc (catalog no. C1004-1). Control agonist used was SDF-1 (Peprotech, Cat #300-28A).
# Cells were seeded in 384-well plate at an appropriate density and cultured overnight. Calcium assay was conducted according to the manufacturer's protocols. The calcium dye loading buffer was added to the cells and incubated for one hour at 37° C. Calcium flux was monitored for 120 seconds with compound injected into the wells at 19th second. In antagonist mode, carrier or compounds were preincubated with the cells for 30 minutes before calcium flux measurement with the control agonist at EC80 concentration obtained from dose-response curve.
# [10] = molecular target: T1, human CXCR4 (CXCR4 positive lipoparticles) (Homo sapiens, UniProt P61073); assay: Biacore SPR kinetic binding to immobilised CXCR4 lipoparticles
# T1 construct: purchased Integral Molecular LEV-101B
# T1 sequence (P61073 whole entry): as above
# Protocol: (FIGS. 2A-2C, 5A-5C, 11A-11D, 17A-17B) Kinetic binding analysis of selected i-bodies with immobilized CXCR4 lipoparticles were performed at 25° C. using Biacore T200 instrument (GE Healthcare, Uppsala, Sweden). Streptavidin immobilization was performed in 1×HBS-P+ running buffer (10 mM HEPES, 150 mM NaCl, 0.05% [v/v] Tween-20). […] All binding experiments involving lipoparticles were performed with 1×HBS/BSA (10 mM HEPES, 150 mM NaCl, 1 mg/mL BSA) as instrument running buffer. […] In order to determine binding kinetics, serial dilutions (three-fold) of i-bodies diluted in 1×HBS/BSA were injected over immobilized lipoparticles with the association and dissociation phases monitored for 60 sec and 600 sec, respectively. A control measurement of the instrument running buffer (“zero-buffer” blank) solution was also included for double referencing purposes. Collected experimental data were processed using Scrubber software (www.biologic.com.au). Kinetic parameters (ka=association and kd=dissociation rate constants) and equilibrium dissociation constant (KD=kd/ka) were derived by fitting each set of experimental data to a Langmuir 1:1 binding model. All interaction measurements were performed in triplicate and the derived binding parameters reported as averaged values±standard deviation.
# [11] = Murine air pouch model with SDF-1; assay type: in vivo, BALB/c mice; settings: intraperitoneal, 30 minutes before SDF-1 6 μg
# Protocol: The ability of i-bodies to block inflammation was evaluated in an in vivo murine air pouch model. The subcutaneous (s.c.) air pouch is an in vivo model used to study acute and chronic inflammation (Durate et al, Models of Inflammation: Carrageenan Air Pouch, Current Protocols in Pharmacology 5.6.1-5.6.8, March 2012). Injection of irritants into an air pouch in rats or mice induces an inflammatory response that can be quantified by the volume of exudate produced, the infiltration of cells, and the release of inflammatory mediators. An air pouch, is generated by injection of sterile air under the skin of the back of the mouse. […] Air pouch lavage fluid is then analyzed for cell trafficking and cytokine release.
# The air pouch assay was performed on 7-week-old BALB/c mice. On days 1 and 3, 0.2 ml/g initial body weight (IBW) of sterile air was injected under the back skin to create the pouch. […] Thirty minutes later, SDF-1 (6 μg) was injected into the pouch. Four hours later, the mice were killed in a CO2 chamber and the air pouch was washed. Cells were collected, counted, and characterized by flow cytometry.
# CCRF-CEM cells = assay: Immunohistochemistry staining of tumours in spleen and liver of SCID/bg mice; settings: 130 μg/ml
# Protocol: Tissues were fixed in 10% neutral buffered formalin overnight and subsequently transferred into tissue cassettes and placed in 70% ethanol. The tissues were then paraffin embedded. Slides containing 4 μm sections were deparaffinized and hydrated by incubating them in two changes of xylene for five min each, followed by two changes of 100% ethanol for 3 min each, 70% ethanol for 2 min, 50% ethanol for 2 min, and distilled water for 5 min. Antigen retrieval was performed by incubating the slides in 10 mM Citric acid solution (pH 6.0) in an 80° C. oven overnight. The slides were subsequently washed in PBS and permeabilized in 10% methanol containing 0.4% H2O2 for 30 min. […] All slides were subsequently stained with biotinylated anti-His tag antibodies (Miltenyi Biotech) and developed using an HRP-DAB cell and tissue staining kit according to the manufacturer's instructions (R&D systems).
# [12] = CXCR4 expressed on lipoparticles (Table 4)
molecule,measurement,setting,value
c1ccc(CNCc2ccc(CN3CCCNCCNCCCNCC3)cc2)nc1 [AMD3465],effectiveness relative to AMD3100 at releasing neutrophils from the bone marrow,[1]; Hatse et al 2005,10 fold
same,diet-induced atherosclerotic lesion development,"[1]; long-term inhibition, Apoe−/− and Ldlr−/− mice, Zernecke et al 2008",aggravated diet-induced atherosclerotic lesion development
"c1cc(CN2CCCNCCNCCCNCC2)ccc1CN1CCCNCCNCCCNCC1 [AMD3100, reference compound]","invasion / motility of normal, slow and rapid IPF lung fibroblast lines","[2]; AMD3100 12 μM, 21H5 130 μg/ml",had no effect
same,development of pulmonary fibrosis in irradiated mice,[3]; Shu et al 2013,did not significantly suppress
same,bleomycin induced pulmonary fibrosis,[3]; Xu et al 2007,effectively alleviate bleomycin induced pulmonary fibrosis
same,IC50,[4],50 nM
same,recruitment of fibrocytes into the lungs,"[5]; day 4, dose not given",able to block recruitment of fibrocytes
same,collagen content of the lung (Sircol),"[5]; positive controls, dose not stated",reduction in collagen
same,induction of apoptosis in Ramos cells,Ramos tumor cells [6],does not induce significant apoptosis
same,growth of RAMOS cells,Ramos tumor cells [7],able to inhibit cell growth
same,CCL2 protein in IPF fibroblast conditioned supernatants,CCL2 and CCL5 protein,markedly increased
"AM4-746: affinity matured CXCR4 i-body, SEQ ID NO: 76 (protein, protein sequence encoding AM4-746) LQVDIVPSQGEISVGESKFFLCQVAGSKSNIRISWFSPNGEKLTPNQQRISVVWNDDSSSTLTIYNANIDDAGIYKCVVYRTGGYRHRYLKLGEATVNVKIFQ",mobilisation of white blood cells,[8],No mobilisation
same,blocking of SDF-1α induced platelet aggregation,[9],blocked aggregation to the same extent as the MAb12G5
same,Calcium Inhibition EC50,CXCR4,uM
same,Ka,[10]; [12],2.5e+06 M⁻¹ s⁻¹
same,cell migration / leukocyte infiltration into the air pouch,[11],inhibiting leukocyte infiltration; also recorded: inhibited cell migration
"AM4-1121: affinity matured CXCR4 i-body, SEQ ID NO: 48 (protein, protein sequence encoding AM4-1121) LQVDIVPSQGEISVGESKFFLCQVAGSKSGIRISWFSPNGEKLTPNQQRISVVWNDDSSSTLTIYNANIDDAGIYKCVVYRTGGYRHRYLRLGEATVNVKIFQ",mobilisation of white blood cells,[8],No mobilisation
same,blocking of SDF-1α induced platelet aggregation,[9],most effective; also recorded: most efficient
same,Calcium Inhibition EC50,CXCR4,uM
same,Ka,[10]; [12],1.289e+06 M⁻¹ s⁻¹ and 1.42e+06 M⁻¹ s⁻¹
same,dissociation rate constant (kd),[10]; [12],9290 M⁻¹ s⁻¹ and 9540 M⁻¹ s⁻¹
same,dissociation rate constant (kd),"[10]; off-rate, CXCR4 expressed on lipoparticles (Table 3)",0.1153
same,cell migration / leukocyte infiltration into the air pouch,[11],inhibiting leukocyte infiltration; also recorded: inhibited cell migration
"AM4-272-6H: AM4-272 with 6 His tag, containing the N-terminal sequence EAEA (protein, left off: small tags and cut ends) EAEALQVDIVPSQGEISVGESKFFLCQVAGSYSDYRISWFSPNGEKLTPNQQRISVVWNDDSSSTLTIYNANIDDAGIYKCVVYRIGGYRHRYLVLGEATVNVKIFQ",invasion of rapid-IPF (fast progressor) lung fibroblasts,[2]; 130 μg/ml,two out three
same,invasion of slow-IPF lung fibroblasts,[2]; 130 μg/ml,inhibited invasion
same,staining of CCRF-CEM cells in spleen and liver,CCRF-CEM cells,stained CCRF-CEM cells
same,induction of apoptosis in Ramos cells,Ramos tumor cells [6],strongly induce apoptosis
same,CCL2 protein in IPF fibroblast conditioned supernatants,CCL2 and CCL5 protein,markedly increased
same,CCL5 levels in IPF lung fibroblasts,CCL2 and CCL5 protein,increased CCL5 levels in some IPF lung fibroblasts
